The values below come from patent US20070087356A1.

Experiment [1] deals with GFP-Tus-His6 fusion protein (green fluorescent protein fused to E. coli Tus E47Q with a C-terminal six-histidine tag) (E. coli) (UniProt P16525). In words: protein microarray, fluorescence scan; fusion protein expressed in situ and captured on the spotted plasmid with mutant Ter site (SEQ ID NO: 12).
The target is the same in experiment [2]. In words: protein microarray, fluorescence scan; fusion protein expressed in situ and captured on the spotted plasmid with wild-type Ter site.

Consider “monoclonal antibody to the poly-his tag (Sigma-Aldrich), labeled with Cy3 or Cy5”, for which, in experiment [1], the Cy3 Signal Intensity (Background subtracted) (arbitrary units) was determined as 10900 and the Cy5 Signal Intensity (Background subtracted) (arbitrary units) was found to be 4740. In experiment [2], this substance registered a Cy3 Signal Intensity (Background subtracted) (arbitrary units) of 20600 and a Cy5 Signal Intensity (Background subtracted) (arbitrary units) of 14000.
